Test results taken from patent publication US20100260678A1.
Blank lines part the entries; values can stand above or below the binder they belong to.

How the values were obtained:
Conditions in all cases: remark: other sources report otherwise
[1] = target: T1, biotinylated full-length human IGF-I receptor, captured on streptavidin (human), P08069; assay: similar ELISA binding titration on human IGF-I receptor
[2] = target: human IGF-I receptor on human tumor cells (human), P08069; assay: IGF-I displacement assay on MCF-7 cells at 37° C., 10-100 µg/mL antibody, capture ELISA of the lysate
[3] = target: T1, biotinylated full-length human IGF-I …; assay: ELISA titration on biotinylated human IGF-I receptor captured on streptavidin; non-linear regression for one-site binding
[4] = target: human IGF-I receptor on human tumor cells (human), P08069; assay: IGF-I displacement assay on MCF-7 cells at 4° C., 10-100 µg/mL antibody, capture ELISA of the lysate

Kd [1]: 0.3 nM
B1: Fab fragment of EM164 antibody (Fab, V domains shown)
VH: QVQLQQSGAELVKPGASVKLSCKASGYTFTSYWMHWVKQRPGQGLEWIGEINPSNGRTNYNEKFKRKATLTVDKSSSTAYMQLSSLTSEDSAVYYFARGRPDYYGSSKWYFDVWGAGTTVTVS
VL: DVLMTQTPLSLPVSLGDQASISCRSSQSIVHSNVNTYLEWYLQKPGQSPKLLIYKVSNRFSGVPDRFSGSGSGTDFTLRISRVEAEDLGIYYCFQGSHVPPTFGGGTKLEIKR
modifications: here or on the partner: biotinylated with PEO-maleimide-biotin reagent (sites not given)

percent displacement of pre-bound biotinylated IGF-I [2]: 90%
Kd [3]: 0.1 nM
percent displacement of pre-bound biotinylated IGF-I [4]: 50%
B2: murine anti-IGF-I receptor antibody EM164 (antibody, V domains shown)
VH: B1 VH
VL: B1 VL
